The record followed here is US5741689A, “Methods to inhibit serine kinase activity and to alter intersubunit binding activity of phosphatidylinositol 3-kinase, and serine kinase active sequence of the same” (Ludwig Institute for Cancer Research, priority 1994, dated 1998).

The target in assay [1] is p85α subunit of PI3-kinase (bovine, full length, recombinant) (bovine) (UniProt P23727).
Assay [2] has as its target p110 subunit of PI3-kinase (bovine, wild type, recombinant) (bovine) (UniProt P32871). Briefly: GST fusion on glutathione-sepharose, p110 Sf9 lysate, bound PI3-kinase activity.
The target of assay [3] is T1, PI3-kinase p85α/p110 complex (wild type, recombinant, expressed in Sf9 cells) (Bos taurus, UniProt P32871).
T1 construct: made in house; host or cells: Sf9 insect cells (baculovirus co-infection)
Briefly: in vitro PI3-kinase assay on anti-p110 immunoprecipitates, p85α/p110 complex. In kind it is biochemical, bovine. Conditions: 0.25 h; 0.3 mM Nbs2, 15 minutes at 22° C; FIG. 17 A lane 3; read-out: loss of PI3-kinase activity. How it is done: (§1) Insect cells were infected with p85α/p110 complex, (see FIG. 17, A, lanes 1-6) or p110 alone, (see FIG. 17, B, lanes 7-12). The immunoprecipitates were washed twice with PI3-kinase buffer (20 mM Tris-HCl, pH 7.5, 100 mM NaCl, 0.5 mM EDTA). The samples were untreated or treated with 0.3 mM 5,5'-Dithio-bis [2-nitrobenzoic acid] (Nbs2) for 15 minutes at 22° C. Excess reagent was removed by washing the complexes three times with PI3-kinase buffer and the immunoprecipitate was then incubated for 15 minutes at 22° C. with increasing concentrations of dithiothreitol (DTT). A control sample was incubated with DTT alone at a final concentration of 300 mM. The remaining DTT was removed by washing with lysis buffer and the immunoprecipitates were subjected to PI3-kinase assays or to in vitro protein kinase assays described below.
(§2) The experiment was carried out and the experimental results set forth in FIG. 17, A. In vitro PI3-kinase assays were performed on anti-p110 immunoprecipitates of these cells that had been treated as follows: untreated (see FIG. 17, A, lane 1 and 7); 300 mM DTT (lanes 2 and 8); treated with 0.3 mM Nbs2 (lanes 3 and 9); immunoprecipitates pretreated with 0.3 mM Nbs2 incubated with 3 mM DTT (lanes 4 and 10), 30 mM DTT (lanes 5 and 11); 300 mM DTT (lanes 6 and 12).

For assay [4], the target named is T2, PI3-kinase p110 subunit alone (wild type, recombinant, expressed in Sf9 cells) (Bos taurus, UniProt P32871).
T2 construct: made in house; host or cells: Sf9 insect cells (baculovirus)
Nature of the assay: in vitro PI3-kinase assay on anti-p110 immunoprecipitates, p110 alone. It counts as biochemical, bovine. Conditions: 0.25 h; 0.3 mM Nbs2, 15 minutes at 22° C; FIG. 17 A lane 9; read-out: loss of PI3-kinase activity. How it is done:
as §1, §2

Assay [5] concerns the target p85α subunit of PI3-kinase (bovine, full length, recombinant) (bovine, UniProt P23727). Briefly: GST-p110 fusion pull-down from Sf9 lysate expressing p85α.
In assay [6] the target is p85β subunit of PI3-kinase (bovine, full length, recombinant) (bovine, UniProt P23726). Nature of the assay: GST-p110 fusion pull-down from Sf9 lysate expressing p85β.
Assay [7] addresses p110 subunit of PI3-kinase (bovine, wild type, recombinant) (bovine, UniProt P32871). Briefly: GST fusion on glutathione-sepharose, p110 Sf9 lysate, bound PI3-kinase activity. How it is done: GST fusion proteins of the various subdomains of p85α were constructed and immobilized on glutathione-sepharose beads, See FIG. 2, A. These proteins were used for affinity analysis with cell lysates prepared from Sf9 cells infected with a recombinant baculovirus expressing p110. The complexes were washed and subjected to PI3-kinase activity. GST alone, and GST p85α bound to glutathione-sepharose beads incubated with wild-type lysate were used as controls.

T1 sequence (P32871 whole entry): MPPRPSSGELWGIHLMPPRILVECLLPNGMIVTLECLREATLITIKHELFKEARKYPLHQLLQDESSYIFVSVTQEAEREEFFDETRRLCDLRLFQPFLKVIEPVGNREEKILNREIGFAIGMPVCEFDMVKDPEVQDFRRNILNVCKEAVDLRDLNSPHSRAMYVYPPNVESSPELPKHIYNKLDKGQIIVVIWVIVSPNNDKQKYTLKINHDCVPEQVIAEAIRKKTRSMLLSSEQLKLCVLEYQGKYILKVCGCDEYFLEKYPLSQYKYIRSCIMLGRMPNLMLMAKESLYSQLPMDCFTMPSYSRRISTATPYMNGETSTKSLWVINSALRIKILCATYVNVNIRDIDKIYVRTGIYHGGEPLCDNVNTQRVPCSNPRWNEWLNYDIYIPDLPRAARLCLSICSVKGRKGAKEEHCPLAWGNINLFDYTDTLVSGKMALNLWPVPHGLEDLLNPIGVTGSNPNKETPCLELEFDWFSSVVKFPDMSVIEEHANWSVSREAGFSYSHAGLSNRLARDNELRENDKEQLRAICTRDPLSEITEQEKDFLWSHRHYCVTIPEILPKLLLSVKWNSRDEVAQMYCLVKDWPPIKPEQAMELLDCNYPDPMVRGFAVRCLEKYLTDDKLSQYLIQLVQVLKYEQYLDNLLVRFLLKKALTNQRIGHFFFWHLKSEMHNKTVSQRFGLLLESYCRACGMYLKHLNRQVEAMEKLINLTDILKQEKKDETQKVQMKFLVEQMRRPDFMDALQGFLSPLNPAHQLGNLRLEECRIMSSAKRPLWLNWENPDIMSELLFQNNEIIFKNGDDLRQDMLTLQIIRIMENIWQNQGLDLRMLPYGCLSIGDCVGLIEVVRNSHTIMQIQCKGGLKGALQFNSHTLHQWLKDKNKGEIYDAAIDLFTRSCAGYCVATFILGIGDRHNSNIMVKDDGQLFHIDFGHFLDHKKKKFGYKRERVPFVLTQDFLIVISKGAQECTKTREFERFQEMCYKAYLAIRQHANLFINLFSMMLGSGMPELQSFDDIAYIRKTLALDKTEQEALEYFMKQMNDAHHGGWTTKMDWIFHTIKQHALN
T1 sequence (P23727 whole entry partner): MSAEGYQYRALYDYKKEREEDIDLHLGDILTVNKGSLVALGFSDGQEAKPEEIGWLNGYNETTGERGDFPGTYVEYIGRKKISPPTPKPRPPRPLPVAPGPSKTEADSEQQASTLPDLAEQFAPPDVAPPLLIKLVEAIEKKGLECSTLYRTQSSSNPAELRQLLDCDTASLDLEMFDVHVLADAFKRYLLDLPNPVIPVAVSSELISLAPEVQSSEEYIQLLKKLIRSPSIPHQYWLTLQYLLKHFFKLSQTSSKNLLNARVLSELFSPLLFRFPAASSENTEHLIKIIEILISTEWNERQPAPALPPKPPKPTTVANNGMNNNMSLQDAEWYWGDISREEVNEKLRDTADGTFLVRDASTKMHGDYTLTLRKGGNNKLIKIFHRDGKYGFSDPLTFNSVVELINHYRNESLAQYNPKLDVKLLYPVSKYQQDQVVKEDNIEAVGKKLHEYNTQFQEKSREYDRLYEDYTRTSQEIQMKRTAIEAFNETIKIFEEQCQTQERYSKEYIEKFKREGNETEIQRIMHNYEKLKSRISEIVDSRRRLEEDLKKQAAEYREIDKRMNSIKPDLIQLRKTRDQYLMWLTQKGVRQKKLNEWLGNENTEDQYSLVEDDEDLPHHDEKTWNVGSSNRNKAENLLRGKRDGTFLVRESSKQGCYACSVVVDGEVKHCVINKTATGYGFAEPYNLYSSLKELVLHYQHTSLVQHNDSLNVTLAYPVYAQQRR
T2 sequence (P32871 whole entry): as the sequence (P32871 whole entry) above

In the case of “p110 subunit of PI3-kinase (bovine, wild type, recombinant) (from UniProt P32871) (enzyme)”, in assay [1], the stoichiometry of phosphorylation of p85α, in vitro protein kinase assay (mol of phosphate per mol of p85α) was determined as 0.9.
For the molecule GST-85βΔ486-516 (from UniProt P23726), in assay [2], the percent of the PI3-kinase activity bound as compared to wild type GSTp85β came out at 65%.
In the case of GST-85βΔ445-469 (from UniProt P23726), the percent of the PI3-kinase activity bound as compared to wild type GSTp85β in assay [2] was determined as 65%.
With `O=C(O)c1cc(SSc2ccc([N+](=O)[O-])c(C(=O)O)c2)ccc1[N+](=O)[O-]` [Nbs2, 5,5'-Dithio-bis [2-nitrobenzoic acid]], the inhibition at 300 µM in assay [3] and in assay [4] was approximately 95% throughout.

B1: GST-p110 fusion protein p110-3 (amino acids 577-1068) (other)
chain: RDEVAQMYCLVKDWPPIKPEQAMELLDCNYPDPMVRGFAVRCLEKYLTDDKLSQYLIQLVQVLKYEQYLDNLLVRFLLKKALTNQRIGHFFFWHLKSEMHNKTVSQRFGLLLESYCRACGMYLKHLNRQVEAMEKLINLTDILKQEKKDETQKVQMKFLVEQMRRPDFMDALQGFLSPLNPAHQLGNLRLEECRIMSSAKRPLWLNWENPDIMSELLFQNNEIIFKNGDDLRQDMLTLQIIRIMENIWQNQGLDLRMLPYGCLSIGDCVGLIEVVRNSHTIMQIQCKGGLKGALQFNSHTLHQWLKDKNKGEIYDAAIDLFTRSCAGYCVATFILGIGDRHNSNIMVKDDGQLFHIDFGHFLDHKKKKFGYKRERVPFVLTQDFLIVISKGAQECTKTREFERFQEMCYKAYLAIRQHANLFINLFSMMLGSGMPELQSFDDIAYIRKTLALDKTEQEALEYFMKQMNDAHHGGWTTKMDWIFHTIKQHALN
Consider B1, for which the binding result in assay [5] and in assay [6] was “no binding” throughout.

B2: GST fusion of the BCR homology region of p85α (amino acids 125-322) (other)
chain: PDVAPPLLIKLVEAIEKKGLECSTLYRTQSSSNPAELRQLLDCDTASLDLEMFDVHVLADAFKRYLLDLPNPVIPVAVSSELISLAPEVQSSEEYIQLLKKLIRSPSIPHQYWLTLQYLLKHFFKLSQTSSKNLLNARVLSELFSPLLFRFPAASSENTEHLIKIIEILISTEWNERQPAPALPPKPPKPTTVANNGM
In the case of B2, in assay [7], the binding result was “no binding”.

B3: GSTp85β(516-724) (other)
chain: RILLNSERLKSRIAEIHESRTKLEQELRAQASDNREIDKRMNSLKPDLMQLRKIRDQYLVWLTQKGARQKKINEWLGIKNETEDQYSLMEDEDDLPHHEERTWYVGKINRTQAEEMLSGKRDGTFLIRESSQRGCYACSVVVDGDTKHCVIYRTATGFGFAEPYNLYGSLKELVLHYQHASLVQHNDALTVTLAHPVRAPGPGPPPAAR
As for B3, in assay [7], the binding result is recorded as “no binding”.
Regarding MPPRPSSGELWGIHLMPPRILVECLLPNGMIVTLECLREATLITIKHEL (other) [GST-p110 fusion protein p110-1.1 (amino acids 1-49)], the binding result in assay [5] and in assay [6] was “no binding” in each case.

B4: GST-p110 fusion protein p110-1.2 (amino acids 1-81) (other)
chain: MPPRPSSGELWGIHLMPPRILVECLLPNGMIVTLECLREATLITIKHELFKEARKYPLHQLLQDESSYIFVSVTQEAEREE
On to B4, for which the binding result in assay [5] and in assay [6] was “no binding” each time.

B5: GST-p110 fusion protein p110-4 (amino acids 601-960) (other)
chain: LLDCNYPDPMVRGFAVRCLEKYLTDDKLSQYLIQLVQVLKYEQYLDNLLVRFLLKKALTNQRIGHFFFWHLKSEMHNKTVSQRFGLLLESYCRACGMYLKHLNRQVEAMEKLINLTDILKQEKKDETQKVQMKFLVEQMRRPDFMDALQGFLSPLNPAHQLGNLRLEECRIMSSAKRPLWLNWENPDIMSELLFQNNEIIFKNGDDLRQDMLTLQIIRIMENIWQNQGLDLRMLPYGCLSIGDCVGLIEVVRNSHTIMQIQCKGGLKGALQFNSHTLHQWLKDKNKGEIYDAAIDLFTRSCAGYCVATFILGIGDRHNSNIMVKDDGQLFHIDFGHFLDHKKKKFGYKRERVPFVLTQDF
With B5, the binding result in assay [5] and in assay [6] was “no binding” each time.

B6: GST-p110 fusion protein p110-1.7 (amino acids 37-128) (other)
chain: LREATLITIKHELFKEARKYPLHQLLQDESSYIFVSVTQEAEREEFFDETRRLCDLRLFQPFLKVIEPVGNREEKILNREIGFAIGMPVCEF
B6: the binding result in assay [5] and in assay [6] was “no binding” in each case.

B7: GST-p110 fusion protein p110-5 (amino acids 760-960) (other)
chain: QLGNLRLEECRIMSSAKRPLWLNWENPDIMSELLFQNNEIIFKNGDDLRQDMLTLQIIRIMENIWQNQGLDLRMLPYGCLSIGDCVGLIEVVRNSHTIMQIQCKGGLKGALQFNSHTLHQWLKDKNKGEIYDAAIDLFTRSCAGYCVATFILGIGDRHNSNIMVKDDGQLFHIDFGHFLDHKKKKFGYKRERVPFVLTQDF
B7: the binding result in assay [5] and in assay [6] was “no binding” in each case.

B8: GST-p110 fusion protein p110-6 (amino acids 760-1069) (other)
chain: QLGNLRLEECRIMSSAKRPLWLNWENPDIMSELLFQNNEIIFKNGDDLRQDMLTLQIIRIMENIWQNQGLDLRMLPYGCLSIGDCVGLIEVVRNSHTIMQIQCKGGLKGALQFNSHTLHQWLKDKNKGEIYDAAIDLFTRSCAGYCVATFILGIGDRHNSNIMVKDDGQLFHIDFGHFLDHKKKKFGYKRERVPFVLTQDFLIVISKGAQECTKTREFERFQEMCYKAYLAIRQHANLFINLFSMMLGSGMPELQSFDDIAYIRKTLALDKTEQEALEYFMKQMNDAHHGGWTTKMDWIFHTIKQHALN
B8: the binding result in assay [5] and in assay [6] was “no binding” throughout.

B9: GST-p110 fusion protein p110-1.4 (amino acids 20-81) (other)
chain: ILVECLLPNGMIVTLECLREATLITIKHELFKEARKYPLHQLLQDESSYIFVSVTQEAEREE
Take B9: the binding result in assay [5] and in assay [6] was “no binding” throughout.

B10: GST fusion of the SH3 domain of p85α (amino acids 1-86) (other)
chain: MSAEGYQYRALYDYKKEREEDIDLHLGDILTVNKGSLVALGFSDGQEAKPEEIGWLNGYNETTGERGDFPGTYVEYIGRKKISPPT
On to B10, for which the binding result in assay [7] is given as “no binding”.

B11: GSTp85β(486-724) (other)
chain: IFEEQGQTQEKCSKEYLERFRREGNEKEMQRILLNSERLKSRIAEIHESRTKLEQELRAQASDNREIDKRMNSLKPDLMQLRKIRDQYLVWLTQKGARQKKINEWLGIKNETEDQYSLMEDEDDLPHHEERTWYVGKINRTQAEEMLSGKRDGTFLIRESSQRGCYACSVVVDGDTKHCVIYRTATGFGFAEPYNLYGSLKELVLHYQHASLVQHNDALTVTLAHPVRAPGPGPPPAAR
For B11, the binding result in assay [7] is listed as “no binding”.
As to MPPRPSSGELWGIHLMPPRILVECLLPNGMIVTLE (other) [GST-p110 fusion protein p110-1.6 (amino acids 1-35)], the binding result in assay [5] and in assay [6] was “no binding” in each case.
